Results taken from a protein production outcome set (Wang et al. 2014).

Experiment: label from the status in PepcDB records

Row | Sequence | protein production
1 | MSTNEITKRLPNLTSRRALLLYSLPVLVAIGVSHSLKESSLTKTIALNLPESQVVERILDATTAEVVTPPNFEYQIQAGDNLSTIFSQLGFGYSSLMKVMETDLNYLALDTLKPGNTLRFWRNDATGELEKMELQFSIADKVVYQLNSDGGYDFTDISIPGVWRQEPLVGVIQGSFSSSANRLGLSSAEISQVVSLLKEQVNFGRDLRAGDRFEVVRRSQTINGVSTGKNEIEAIKIYNRGREITAYLHTDGQFYNAKGESLQRAFQRYPVSRSWRISSGFNPNRLHPVTGRVAP | failed
2 | HNESIRYLIVPGWQGSPDDHWQAHWQNSLPNSTRVEQADWLKPRREDWVGELQRTIAAQSTPVILIAHSLGCVTVAHWAQLAPLETLRQVQGALLVAPADVERPNCPPALRNFAPIPADLLPFPTQVVSSDNDPAVSSQRAIEMARHWGAELGFLSQAGHINVKSGHQRWEQGFAYLYRLQNRLEQ | failed
3 | MVYVFQGIGGYIILFLLMIGEGIGLPLPSEVIMPLVGYYSYLGSISLYLGVIVGTLGSLVGSIIAYIIGYKLGLAFLKRYGKYILIDEGKIEALHNWFLRYGNMAVFGFRFIPGLRALISYPAGIGQMKILKFLGFTFLGHTIWDIVLALIGYQLANQINFVITQAEKLGNYLFILVIVIIVIYILWRIFWKRK | failed
4 | MQSVSSMSSMDHFWLVIFCACVAFIPRFFPLLFFTKRKIPKWFNEWMRFVPVSLFTALVVKSVFIDSKYAVITSGNLGMIISAILVGFVAYRTRSMTLSVVIGLVSVMIFVLLIHI | failed
5 | MSRQIFYMPFSLRFLFLLIIITIFGLGSLFLGVIVSAFMKIGFSAEDALLILFLSLLGSGINIPLTTLKSDIPVVKDNYIKFFGISYRIPTRQIVRNETLLAINVGGAVIPVLISAYLLTQFPSSLLLAGAGVAIVAIVTHSVARPIKGVGIATPALIPPLTSVLSAVLLTSIVHIPGCPAEPCRVIIAYTGGVLGTLIGADLLNLGKIKNLGAPVASIGGAGTFDGIFLSGFIALLLI | failed
6 | MLLSFDNKAIADWAKLSGDYNPIHFEVERARETGANDIIVHGMLPLLHIKQRLSTVLPADTGRDWVSVKAMFRSPVLRQLPHALEIQPGKQRSRFSLRATHDASEVMAGSVYRSVPAESPEQPASFSIDRQLFREKRAVFAEAFPDFDRAWLLVDALTFSQFLSSEVPFSIVRDLAKMSGIASQHELMDAALTVQTAHTVMVEPELFRMPLSQLKDPGEIRCELHAPVTVPNSKDTLSGLSQFTVRLDGRPVMQSEVGLLVRFKS | failed
7 | TSAGWVSVAIGPLPLRCWWSPPAGCRRDIDNISIENRAYIVLPEVFGVNAWVRSVADRLAAQGIPALAVPLFARTAPELELAYESCDLAQGRAHKDATTASQILSDVSAAVAWLQQRCPNAAIDLAGFCFGGHAALLAATLPQIRHSFDFYGAGVSRMRPGGGAPSLELLPQVSGQLTCVCGSADPLIPEEDRTTIRSALAAADPSGKRMSYIEIDGVDHGFMCEARGSFDADASALGWQLMLA | failed
8 | MKFKIHSDITYQVMSPTTFIFNVHALRTESQHILDESLIVTPPIEIEEFSYNSGTSRFVRLKATENTTFSMSYTATVDTQYKVIDQRQELETVPVVDLDGDIIPFLFPSRYCQSDKLQKLAYKEFGKIENVYSKVLAITDWIYNNVEYISGSTNSQTSAFDTITERAGVCRDFAHLGIALCRALSIPARYFTGYAFKLNPPDFHACFEAYIGGNWIIFDATRLVPLNGLVKIATGRDAADAAVASIFGNASSTNMHVECASLDTDFTPFWYDKNSLKGLSFQ | not failed
9 | AIAEHKEVVLLLLLFLKSGQGEPLDDYVNTQGPSLFSVTKKQLGAGSREECAAKCEEDKEFTCRAFQYHSKEQQCVIMAENRKSSIIIRMRDAVLFEK | not failed
10 | MMSPRIGLTLQKIVETAAEIADANGVQEVTLASLAQTLGVRSPSLYNHVKGLQDVRKNLGIYGIKKLHNRLEEAAEDKRMDEAIHALGEAYVAFVRKHPGLYEATFLRDEEVRKAGDGIVKLCLQVLQQYGLEGENALHATRGFRSICHGFASIEQQGGFGLPLDLDISLHVLLETFIKGLRE | not failed
11 | DRRYKWQTVVSEQLVGAGFNEILNNSLTAGSYYEGLKTHPREMAVELMNPLSQELNCMRQTLLFGGLETLSHNLRRKHLSLYLFEWGKCYRFHAAKRTDETPLSAYAEDDRLGIWICGQRVHNSWAHPEEPTSVFELKAVVEQVLCRVGIETGAYTLETADNDLYASAMEVKTRSGKLLGTFGTVSTEQIKRFDIEQPVYFAELLWDALMSESARYKLEARD | failed
12 | MSEIILVTGAAGQLGQRVIHHLIETYKVAPGNIVAATRSPEKLSELEKKGVVTRKADFDDAAGLEKAFAGVDRLLIISTDALDTPGKRLAQHKGAVAAAVKSGVKHIAYTSMPGPDNSLVTFAPDHLGSENAIKASGIAHTIIRDAWYHDNYLHGMPHNLQGGKWYSATGDGKISTISRDDCALAIAAALASGTSESATYTVTGTQSLNSRQIAAIVSDVAGKPLEVIDVTDEQLGQGMRGAGLPGFVADMLVSADANTRAGKFDIVTEDFTKLTGKQPQPLKDFFVEHKATLTA | failed
13 | GSSGSSGSTVVMADVSQYHVNHLVTFCLGEEDGVHTVEDASRKLAVMDSQGRVWAQEMLLRVSPSQVTLLDPVSKEELESYPLDAIVRCDAVMPRGRSRSLLLLVCQEPERAQPDVHFFQGLLLGAELIREDIQGALQNYRSGRGERSGPSSG | not failed
14 | LRRGHLKLQRDGQIIGHTPEEWEQIFREVWPEYEIEPNPLPGYAPFDIGMWLTVEAPAYAVWIDPEDGSEYWAG | failed
15 | MLCARTDNHQGTGNVVTSAHMTRANDDDAGAAGIGAVAHMTTVDDNYTGHVERGKAARRFLPGATILKASVGPMDNNAYLVTCSATGETLLIDAANDAEVLIDLVRRYAPKLALIVTSHQHFDHWQALQAVAAATGAPTAAHPIDADPLPVKPDRLLTHGDSVRIGELTFDVIHLRGHTPGSIALALGGPVTGGVTQLFTGDCLFPGGVGKTWQPADFTQLLDDVTTRVFDVYADSTVIYPGHGDDTELGAERPSLSEWRARGW | failed
16 | MTNNLKQRRIILDLAVTLDGFIEGKNGEVDWCIMDPDMGFTDFLNQIDTILYGRKSFDLWGQYIPKNEDPDTEKELWKLVHSKKKYVFSRTQNEIDNQAIFINDNILEEVNKLKKNPGKDIWLYGGASLITTFINLGLVDEFRLSIHPVVLGEGKPLFIDVKQRINLKMVNTRTFSSGVVQIVYHWNG | not failed
17 | MTKIACVIVTYNRKQLLEEALNSVLIQTESPEYVFVIDNASTDGTEKYINDKFNFDNRQWHYVRCSQNLGGSAGFAQGMRLALQTDCSWISISDDDAIFEPGYFAALRKGIKQYPEQSVFSGSVLLPDGKHDMMHREVITNSATLTVRCVTDETYKHDFSYDIFSFVGILLSRQVIEAIGLPEQDYFIRFDDFEYAVRALKFGRFMNLSAAKVLHKTTYTRSAIAPWKEYYVMRNRIALLIKHRGNNHTVRWYCRRFLLRKLLAILLFSNRRRQARSLVNAYVKGYQDGWHARLGRQLAFLPS | failed
18 | MNNKTKGIILITISALSFALMSTFVKLSGDLPSIEKSFFRNLVSCFVAFYLVKKDNALLFGHKENRLALIGRSALGTLGIWANYYAIDRLILSDATILNKLSPFFVIIFSYLFLKEKLKPIHIICLLAAFSGVLFIVRPSGNLASNFIPAIIGLCSAAFAGGAYTFVRYLGGKEKGATIVFFFSFFSIVTTFPIMLFQFETFSLEQFVFLILAGVAASCAQFALTAAYKYAPARDISIYDYTQVIFTALIGFVLFGDIPDKISLIGYVLILLASFSIFLYNKKEASK | not failed
19 | MPATPSLKVVHELPACTLCAGPLEDAVTVPCGHTFCRLCLPALSQMGAQSSGKILLCPLCQEEEQAETPMAPVPLGPLGETYCEEHGEKIYFFCENDAEFLCTSECRTTDGFGCA | failed
20 | MEIYLVFVDAASNSNKFWTAKVEQNQLTVQWDRVGYKAQTKVHQFTSQAQAANKYNNLVFEKKAKGYQESQPQIESCGVVDIRRAMQLLNGLRSYVTNRNFNADYINLLNQYLKIIPTPLGMQLEPYRIFTSVADVDHQRELLSSLIPATPVAVTQAKQMPESQEKIVSLRGIHKNLWRHFLEHHHHHH | failed
